Measured values reported in US20110165156A1 (published 2011).

Legend:
[1] = target: CSF-1R of cynomolgous monocytes (cynomolgous); experiment: cell-based or functional assay
[2] = target: T1, human CSF-1R fragment D1-D3 (human, UniProt P07333 20-311); experiment: SPR Biacore T100, 37 C, antibody captured, D1-D3 single cycle kinetics
T1 construct: Subcloned into the pCMV-presS-HisAvitag expression vector; not shown: His-Avi tag of the vector pCMV-presS-HisAvitag
Experimental: Antibodies against CSF-1R were captured via amine coupled capture molecules. Using the single cycle kinetics five increasing concentrations of human CSF-1R fragment D1-D3 (SEQ ID NO: 66) were injected. Human CSF-1R fragment D1-D3 was subcloned into pCMV-presS-HisAvitag expression vector.
Single Cycle Kinetics was measured at a flow rate of 30 μL/min by five consecutive injections of the analyte with concentrations, c=7.8, 31.25, 125 500 and 2000 nM, without regeneration. Each injection was 30 seconds long and followed by a dissociation phase of 120 Seconds for the first four injections, and finally 1200 seconds for the highest concentration (=last injection).
Kinetic parameters were calculated by using the usual double referencing (control reference: binding of analyte to capture molecule; Flow Cell: subdomain CSF-1R concentration “0” as Blank) and calculation with model ‘titration kinetics 1:1 binding with draft’.

T1 sequence (P07333 20-311): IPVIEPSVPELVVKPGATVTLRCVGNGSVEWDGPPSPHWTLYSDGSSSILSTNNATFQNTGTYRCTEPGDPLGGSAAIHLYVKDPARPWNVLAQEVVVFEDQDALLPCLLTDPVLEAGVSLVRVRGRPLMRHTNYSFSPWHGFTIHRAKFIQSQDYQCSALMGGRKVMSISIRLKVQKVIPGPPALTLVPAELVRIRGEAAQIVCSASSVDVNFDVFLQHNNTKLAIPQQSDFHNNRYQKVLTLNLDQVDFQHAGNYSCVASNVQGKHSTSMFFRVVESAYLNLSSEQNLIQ

B1: Mab 2F11 (antibody, V domains shown)
VH: QVQLKESGPGLVAPSQSLSITCTVSGFSLTTYDISWIRQSPGKGLEWLGVIWTDGGTNYNSPFMSRLSIRKDNSKSQVFLKMNRLQTDDTAIYYCVRDQRLYFDVWGAGTTVTVSS
VL: NIVMTQSPKSMSMSVGERVTLNCKASEDVNTYVSWYQQQPEQSPKLLIYGASNRYTGVPDRFTGGGSTTDFTLTISSVQAEDLADYFCGQSFSYPTFGTGTKLEIK
notes: Murine monoclonal antibody from a hybridoma; also called muMab 2F11
With B1 the “% inhibition (of survival) = (100% - % survival)” value (“% inhibition (of survival) =” for short) [1] was 96%, the “% survival (cynomolgous monocytes, 5 µg/ml antibody)” value [1] was 4% and the binding result [2] was “no binding (tested: 2000 nM)”.

B2: Mab 2E10 (antibody, V domains shown)
VH: QVQLKESGPGLVAPSKSLSITCTVSGSSLDSFDISWIRQSPGKGLEWLGVIWTGGGTNYNSGFMSRLRITKDNSKSQVLLKMNSLQSDDTAIYYCVRDPRLYFDVWGAGTTVTVSS
VL: NIVMTQSPKSMSMSVGERVTLSCKASEDVVTYVSWYQQKPDQSPKLLIYGASNRYTGVPDRFTGSGSATDFTLTISSVQAEDLADYYCGQTFSYPTFGTGTKLEIK
notes: Murine monoclonal antibody from a hybridoma
For B2, the “% inhibition (of survival) =” value [1] was 83%, the “% survival (cynomolgous monocytes, 5 µg/ml antibody)” value [1] was 17% and the binding result [2] was “no binding (tested: 2000 nM)”.

B3: Mab 1G10 (antibody, V domains shown)
VH: RVQLKESGPGLVAPSQSLSITCTVSGFSLTSYDISWIRQSPGKGLEWLGVIWSGGGTNYNSPFMSRLRISKDDSRSQVFLKVNRLQTDDTAIYYCVRDLRLYFDVWGAGTTVTVSS
VL: KIVMTQSPKSMSVSVGERVSLSCKASEDVGTYVSWYQQKPEQSPKLLIYGSSNRYTGVPDRFTGSGSATDFTLTISSVQAEDLADYSCGQSFTYPTFGTGTKLEIK
notes: as for B2
With B3 the “% inhibition (of survival) =” value [1] was 98%, the “% survival (cynomolgous monocytes, 5 µg/ml antibody)” value [1] was 2% and the binding result [2] was “no binding (tested: 2000 nM)”.

B4: Mab 2H7 (antibody, V domains shown)
VH: QVQLKESGPGLVAPSKSLSITCTVSGSSLDSFDISWIRQPPGKGLEWLGVIWTGGGTNYNSGFMSRLRISKDNSKSQVFLKMSSLQSDDTAIYYCVRDPRLYFDVWGAGTTVTVSS
VL: NIVMTQSPKSMSMSVGERVTLSCKASEDVVTYVSWYQQKPEQSPKLLIYGASNRYTGVPDRFTGSGSATDFTLTISSIQAEDLADYYCGQTFSYPTFGTGTKLEIK
notes: as for B2
In the case of B4, the “% inhibition (of survival) =” value [1] is reported as 92% and the “% survival (cynomolgous monocytes, 5 µg/ml antibody)” value [1] is reported as 8%.
